Substitutions are numbered along the chain they refer to.
T1: PAR-2 peptide (SEQ ID NO:42) coupled to Transferrin as carrier (coupled to Transferrin as carrier)
T1 construct: Transferrin carrier not further described
T1 peptide: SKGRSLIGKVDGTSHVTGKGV

T2: PAR-1 peptide (SEQ ID NO:43)
T2 peptide: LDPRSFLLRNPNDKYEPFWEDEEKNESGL

T3: PAR-4 peptide (SEQ ID NO:44)
T3 peptide: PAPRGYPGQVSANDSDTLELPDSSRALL

T4: Human PAR-2 on cells (human, UniProt P55085 26-397)
T4 sequence: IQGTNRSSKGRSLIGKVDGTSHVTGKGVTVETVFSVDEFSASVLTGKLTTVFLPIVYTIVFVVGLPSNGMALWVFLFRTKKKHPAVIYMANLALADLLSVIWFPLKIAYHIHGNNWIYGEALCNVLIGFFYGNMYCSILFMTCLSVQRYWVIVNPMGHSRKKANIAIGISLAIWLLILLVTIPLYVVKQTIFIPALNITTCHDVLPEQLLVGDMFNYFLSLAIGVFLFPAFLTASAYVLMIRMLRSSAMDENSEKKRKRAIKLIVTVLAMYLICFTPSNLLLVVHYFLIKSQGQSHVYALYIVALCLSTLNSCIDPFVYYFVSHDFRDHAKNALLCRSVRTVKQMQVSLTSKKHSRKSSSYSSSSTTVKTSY

T5: FLAG-tagged PAR-2 over-expressed on HEK transfectants (Homo sapiens (Human), UniProt P55085 37-397)
T5 sequence: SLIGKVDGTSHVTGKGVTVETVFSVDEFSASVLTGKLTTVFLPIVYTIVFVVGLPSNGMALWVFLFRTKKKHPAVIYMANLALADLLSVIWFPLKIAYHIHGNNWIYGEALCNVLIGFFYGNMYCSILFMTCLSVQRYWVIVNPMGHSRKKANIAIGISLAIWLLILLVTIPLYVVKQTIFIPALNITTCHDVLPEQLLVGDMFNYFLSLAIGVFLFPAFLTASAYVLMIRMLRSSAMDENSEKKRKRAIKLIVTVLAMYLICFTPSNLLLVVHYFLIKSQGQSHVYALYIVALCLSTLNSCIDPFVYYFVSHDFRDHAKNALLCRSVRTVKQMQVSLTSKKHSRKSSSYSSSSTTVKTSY

T6: Mouse PAR-2 (endogenous, LLC cells and mouse aortic rings) (mouse, UniProt P55086 39-399)
T6 sequence (looked up): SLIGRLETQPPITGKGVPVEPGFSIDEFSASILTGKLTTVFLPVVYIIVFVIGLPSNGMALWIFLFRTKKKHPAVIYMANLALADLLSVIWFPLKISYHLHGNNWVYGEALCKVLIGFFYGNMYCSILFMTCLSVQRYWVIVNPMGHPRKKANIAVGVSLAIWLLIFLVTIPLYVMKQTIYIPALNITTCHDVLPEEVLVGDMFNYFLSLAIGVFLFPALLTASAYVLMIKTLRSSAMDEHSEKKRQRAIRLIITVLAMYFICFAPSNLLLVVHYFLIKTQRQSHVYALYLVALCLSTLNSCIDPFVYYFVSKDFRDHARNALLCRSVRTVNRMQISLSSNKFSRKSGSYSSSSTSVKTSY

T7: Rat PAR-2 (endogenous, ARIP cells and rat aortic rings) (rat, UniProt Q63645 37-397)
T7 sequence (looked up): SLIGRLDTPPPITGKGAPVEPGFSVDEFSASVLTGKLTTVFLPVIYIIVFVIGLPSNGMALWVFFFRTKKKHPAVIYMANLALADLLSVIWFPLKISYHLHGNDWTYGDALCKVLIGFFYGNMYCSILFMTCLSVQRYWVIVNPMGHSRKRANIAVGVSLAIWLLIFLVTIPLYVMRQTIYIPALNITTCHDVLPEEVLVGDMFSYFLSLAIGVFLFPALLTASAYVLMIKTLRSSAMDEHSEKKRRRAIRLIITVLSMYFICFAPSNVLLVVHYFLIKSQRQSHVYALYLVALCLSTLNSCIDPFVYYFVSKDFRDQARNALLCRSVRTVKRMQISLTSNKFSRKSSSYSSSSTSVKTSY

T8: Human PAR-2 peptide (SEQ ID NO:1, Residues 33-54) (human)
T8 peptide: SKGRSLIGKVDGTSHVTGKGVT

T9: Murine PAR-2 peptide (murine)
T9 construct: also called mouse PAR-2 peptide
T9 peptide: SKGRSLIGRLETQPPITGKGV

T10: Rat PAR-2 peptide (rat)
T10 peptide: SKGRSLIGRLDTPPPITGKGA

T11: Cynomolgus PAR-2 peptide (cynomolgus)
T11 peptide: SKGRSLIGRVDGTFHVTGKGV

B1: Ab4999 IgG4_Pro (antibody, V domains shown)
VH: QVQLVESGGGLVQPGGSLRLSCAASGFTFSSYAMNWVRQAPGKGLEWVSTISYSSSATSYADSVKGRFTISRDNSKNTLYLQMNSLRAEDTAVYYCARIQNDPMDVWGQGTLVTVSS
VL: DIELTQPPSVSVAPGQTARISCSGDNLGKKYVQWYQQKPGQAPVLVIYDDSNRPSGIPERFSGSNSGNTATLTISGTQAEDEADYYCQTWDYSSIRDETNVFGGGTKLTVLG
notes: IgG4_Pro (human IgG4 constant regions, Ser241Pro hinge), lambda; also called IgG4p Ab4999
B2: Ab5151 IgG4_Pro (cross-cloned: light chain of Ab4999 with heavy chain of Ab5007) (antibody, V domains shown)
VH: B1 VH with T50A, Y53F, S55G, S56H, A57L, S59G
VL: B1 VL
notes: IgG4_Pro format
B3: Antibody Par-B (antibody, V domains shown)
VH: B1 VH with Q3E
VL: B1 VL
notes: Codon-optimized version of Ab4999 made in CHO-DG44
B4: Antibody Par-C (antibody, V domains shown)
VH: B1 VH with Q3E, T50A, Y53F, S55G, S56H, A57L, S59G
VL: B1 VL
notes: Codon-optimized version of Ab5151
B5: Antibody Par-D (antibody, V domains shown)
VH: QVELVESGGGLVQPGGSLRLSCAASGFTFSNHAMHWVRQAPGKGLEWVSAISHPGKFTYYADSVKGRFTISRDNSKNTLYLQMNSLRAEDTAVYYCARHGDGMDYFDFWGQGTLVTVSS
VL: DIELTQPPSVSVAPGQTARISCSGDNIGTKYVYWYQQKPGQAPVLVIYDDNNRPSGIPERFSGSNSGNTATLTISGTQAEDEADYYCQSYDSQTMVFGGGTKLTVLG
notes: Codon-optimized version of Ab4996

How the values were obtained:
[1] = target: T1, PAR-2 peptide (SEQ ID NO:42) coupled to …; assay: ELISA on peptide
[2] = target: T2, PAR-1 peptide (SEQ ID NO:43); assay: ELISA on peptide
[3] = target: T3, PAR-4 peptide (SEQ ID NO:44); assay: ELISA on peptide
Human PAR-2 on cells [4] = target: T4, Human PAR-2 on cells; assay: cell-based or functional assay
[5] = target: T5, FLAG-tagged PAR-2 over-expressed on HEK …; assay: cell-based or functional assay
[6] = target: labeled peptide representing the N-terminus of PAR-2 (FRET assay); assay: cell-based or functional assay
Human PAR-2 on cells [7] = target: T4, Human PAR-2 on cells; assay: cell binding of IgG4_Pro, HEK-PAR-2 (#3)
Human PAR-2 on cells [8] = target: T4, Human PAR-2 on cells; assay: binding of IgG4p to PAR-2 transfected HEK cells (HEK-PAR-2 #3)
Human PAR-2 on cells [9] = target: T4, Human PAR-2 on cells; assay: cell-based or functional assay; remark: listed apart in the source
[10] = target: T6, Mouse PAR-2 (endogenous, LLC cells and …); assay: cell-based or functional assay
[11] = target: T7, Rat PAR-2 (endogenous, ARIP cells and …); assay: cell-based or functional assay
[12] = target: T8, Human PAR-2 peptide (SEQ ID NO:1, …); assay: Kinexa, peptide in solution
Description: (§1) Binding to peptide in solution was determined by Kinexa technology.

Murine PAR-2 peptide [13] = target: T9, Murine PAR-2 peptide; assay: Kinexa, peptide in solution
Description: as §1

Rat PAR-2 peptide [14] = target: T10, Rat PAR-2 peptide; assay: Kinexa, peptide in solution
Description: as §1

Cynomolgus PAR-2 peptide = target: T11, Cynomolgus PAR-2 peptide; assay: Kinexa, peptide in solution
Description: as §1

Rat PAR-2 peptide [15] = target: T10, Rat PAR-2 peptide; assay: Rat PAR-2 Peptide Binding (Kinexa)
Description: as §1

Murine PAR-2 peptide [16] = target: T9, Murine PAR-2 peptide; assay: Mouse PAR-2 Peptide Binding (Kinexa)
Description: as §1

Human PAR-2 on cells [17] = target: T4, Human PAR-2 on cells; assay: binding to human PAR-2 transfected HEK293 cells

Binder | binding result [1] | binding result [2] | binding result [3] | FLIPR A549 cells IC50 (Human PAR-2 on cells [4]) [nM] | FLAG Cell-Based Cleavage Approx. IC50 [5] [nM] | FRET Peptide Cleavage IC50 [6] [nM] | EC50 (Human PAR-2 on cells [7]) [nM] | Kd [12] [nM] | Kd (Murine PAR-2 peptide [13]) [nM] | Kd (Rat PAR-2 peptide [14]) [nM] | Kd (Cynomolgus PAR-2 peptide) [nM] | Kd (Rat PAR-2 peptide [15]) [nM] | Kd (Murine PAR-2 peptide [16]) [nM] | further results
B1 | binds | no binding | no binding | 3.1 | < 1 | < 30 | 0.2 |  |  |  |  |  |  | EC50 (Human PAR-2 on cells [8]): 0.2 nM
B2 | binds | no binding | no binding | 4 | < 1 | < 30 | 0.4 |  |  |  |  |  |  | 
B3 |  |  |  |  |  |  |  | 0.08 | 0.08 | 0.02 | 0.04 | 0.02 | 0.08 | Human Keratinocyte/IL-8 assay IC50 (Human PAR-2 on cells [9]): ~100 nM; Mouse Aortic Ring Assay, shift of EC50 (Trypsin) [10]: ~5 fold; Mouse Cell Line FLIPR IC50 [10]: ~0.4 nM; Rat Aortic Ring Assay, shift of EC50 (Trypsin) [11]: ~8 fold; fold vs. human peptide (Rat PAR-2 peptide [15]): 4 fold; fold vs. human peptide (Murine PAR-2 peptide [16]): 1 fold; EC50 (Human PAR-2 on cells [17]): ~0.3 nM
B4 |  |  |  |  |  |  |  | 0.03 | 0.03 |  |  |  |  | 
B5 |  |  |  |  |  |  |  |  | 0.42 | 0.04 | 0.14 | 0.04 | 0.42 | 

From patent US20100119506A1 (published 2010)
